This passage reports Binding affinity (RU) results from patent US20250011363A1, “OPTIMIZED SHORTENED PEPTIDE THAT BINDS TO ACETYLCHOLINE RECEPTOR, AND USE THEREOF” (SKINMED CO., LTD., priority 2021, published 2025).

The target of this test is acetylcholine receptor. Put plainly: SPR, AchR on chip, peptide 10 uM.

In turn, RRQQR [5mer-227] registered a Binding affinity (RU) of 84 RU.
The result for RLRLR [5mer-537] reads 59 RU; that for RRYTR [5mer-226], 60 RU; that for RVYYR [5mer-518], 87 RU.
The figure for KWRYR [5mer-240] is 51 RU.
The figure for KQFSR [5mer-526] is 54 RU; for KVFLK [5mer-541] it is 80 RU; for KSLLR [5mer-535] it is 70 RU.
As for RVYYK [5mer-233], the Binding affinity (RU) came out at 84 RU.
The figure for RVLLR [5mer-528] is 50 RU; for KQRYK [5mer-525] it is 51 RU.
Consider RVQSR [5mer-529], for which the Binding affinity (RU) is 84 RU.
The result for RLVYK [5mer-533] reads 84 RU.
The figure for RRICR [5mer-524] is 83 RU; for RLVYR [5mer-522] it is 78 RU.
The result for KQFQK [5mer-523] reads 84 RU; that for KWLLR [5mer-222], 86 RU; that for KQYTR [5mer-219], 55 RU.
For the molecule KQQQR [5mer-538], the Binding affinity (RU) came out at 72 RU.
RQFYR [5mer-540] returned a Binding affinity (RU) of 74 RU.
The result for KRISR [5mer-2] reads 80 RU; that for KVRCR [5mer-241], 51 RU.
KGLLK [5mer-231]: the Binding affinity (RU) worked out at 60 RU.
The molecule KQICK [5mer-532] displayed a Binding affinity (RU) of 75 RU.
RVVTR [5mer-539] displayed a Binding affinity (RU) of 70 RU.
The figure for KRQSR [5mer-531] is 65 RU.
The figure for RVLLK [5mer-520] is 86 RU; for KRFLK [5mer-228] it is 53 RU.
The figure for KVLCR [5mer-230] is 67 RU; for RRQLR [5mer-534] it is 50 RU; for RWRRR [5mer-530] it is 80 RU.
For RLITK [5mer-536], the Binding affinity (RU) stood at 78 RU.
The result for KQVLK [5mer-238] reads 58 RU; that for KRRCK [5mer-236], 81 RU.
The figure for RQYCR [5mer-234] is 62 RU.
The figure for KRQQK [5mer-225] is 51 RU; for RVQCK [5mer-1] it is 54 RU; for KQVRK [5mer-223] it is 61 RU.
In the case of KWIRK [5mer-301], the Binding affinity (RU) was 64 RU.
The result for KSVQR [5mer-527] reads 70 RU; that for KGYSK [5mer-235], 70 RU; that for RGLRK [5mer-237], 77 RU.
The figure for KRLYR [5mer-239] is 61 RU; for KRILR [5mer-220] it is 81 RU; for RGRTR [5mer-221] it is 58 RU.
The figure for RRILK [5mer-302] is 70 RU; for KWYTR [5mer-232] it is 71 RU; for KVQYK [5mer-218] it is 80 RU.
For RLYSK [5mer-519], the Binding affinity (RU) worked out at 72 RU.
The figure for KRFRK [5mer-521] is 78 RU; for RLQRR [5mer-224] it is 67 RU.
Turning to KGLTR [5mer-229], the Binding affinity (RU) was determined as 84 RU.
